Consider 11 molecules from patent US20040105862A1 (published 2004).

One may read the Kd as the concentration at which binding is half-saturated.

Numbering of substitutions follows the chain as printed. Where two headings read alike, the source gives them in different places.

For experiment [1], the target named is T1, human TIMP-1 (human, UniProt P01033 24-207).
T1 construct: Immobilised on BIAcore chip or ELISA plate; in solution in the protease assay
Description: BIAcore SPR, Fab, monovalent fit. (In general: SPR reads the build-up and loss of mass on a sensor chip optically.)

The target of experiment [2] is T1, human TIMP-1. As to the kind of experiment: cell-based or functional assay.
In experiment [3] the target is T1, human TIMP-1. Description: BIAcore SPR, Fab, monovalent fit. The source holds these as a separate data set.
The target of experiment [4] is T2, rat TIMP-1 (rat, UniProt P30120 24-217).
T2 construct: Immobilised on BIAcore chip or ELISA plate; in solution in the protease assay
T2 sequence (P30120 24-217 limits assumed): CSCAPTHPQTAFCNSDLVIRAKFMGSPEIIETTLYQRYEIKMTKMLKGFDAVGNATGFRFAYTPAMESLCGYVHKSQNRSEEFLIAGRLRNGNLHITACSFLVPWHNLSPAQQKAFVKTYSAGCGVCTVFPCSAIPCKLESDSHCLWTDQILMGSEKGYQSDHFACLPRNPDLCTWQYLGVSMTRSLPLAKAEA
As to the kind of experiment: BIAcore SPR, Fab.

Experiment [5] addresses T2, rat TIMP-1. As to the kind of experiment: cell-based or functional assay.
Experiment [6] concerns the target T1, human TIMP-1. Description: cell-based or functional assay. This is another data set of the same source.
For experiment [7], the target named is T1, human TIMP-1. As to the kind of experiment: cell-based or functional assay. The source holds these as a separate data set.
The target of experiment [8] is T1, human TIMP-1. Description: BIAcore SPR, Fab.
Experiment [9] concerns the target T2, rat TIMP-1. Description: cell-based or functional assay. The source holds these as a separate data set.

B1: MS-BW-3 (Fab, V domains shown)
VH: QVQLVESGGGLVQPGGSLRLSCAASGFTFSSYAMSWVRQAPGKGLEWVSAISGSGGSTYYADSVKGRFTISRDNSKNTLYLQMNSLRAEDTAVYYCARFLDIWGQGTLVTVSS
VL: DIALTQPASVSGSPGQSITISCTGTSSDVGGYNYVSWYQQHPGKAPKLMIYDVSNRPSGVSNRFSGSKSGNTASLTISGLQAEDEADYYCQSYDFLRFSVFGGGTKLTVL
In the case of B1, the equilibrium dissociation constant (Kd) with human TIMP-1 [1] and with human TIMP-1 [3] was 0.013 µM each time. Further, the “IC50 in human protease assay” value with human TIMP-1 [2] is 0.011 µM.

B2: MS-BW-17-1 Fab (Fab, V domains shown)
VH: QVQLVQSGAEVKKPGESLKISCKGSGYSFTSYWIGWVRQMPGKGLEWMGIIYPGDSDTRYSPSFQGQVTISADKSISTAYLQWSSLKASDTAMYYCARLTNYFDSIYYDHWGQGTLVTVSS
VL: DIALTQPASVSGSPGQSITISCTGTSSDVGGYNYVSWYQQHPGKAPKLMIYDVSNRPSGVSNRFSGSKSGNTASLTISGLQAEDEADYYCQAFDVAPNGKVFGGGTKLTVLG
notes: Fab; LCDR3-optimised from MS-BW-17
Take B2: the “improvement factor (affinity) over parental clone” value with rat TIMP-1 [4] is 16.3 fold.

B3: MS-BW-17-2 (Fab, V domains shown)
VH: B2 VH
VL: B2 VL with D94A, A96M, G99V, K100E
Take B3: the “improvement factor (functional activity in the protease assay) over parental clone” value with rat TIMP-1 [5] came out at 10 fold.

B4: MS-BW-44 (Fab, V domains shown)
VH: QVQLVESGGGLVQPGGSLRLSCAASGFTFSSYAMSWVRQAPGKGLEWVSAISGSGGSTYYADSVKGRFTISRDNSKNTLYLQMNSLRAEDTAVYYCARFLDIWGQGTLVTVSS
VL: DIALTQPASVSGSPGQSITISCTGTSSDVGGYNYVSWYQQHPGKAPKLMIYDVSNRPSGVSNRFSGSKSGNTASLTISGLQAEDEADYYCQSYDFVRFMVFGGGTKLTVLG
Consider B4, for which, in the experiment with human TIMP-1 [6], the “improvement factor (IC50) over MS-BW-3” value is 2.75 fold.

B5: MS-BW-44-2-16 (Fab, V domains shown)
VH: QVQLVESGGGLVQPGGSLRLSCAASGFTFSSYAMSWVRQAPGKGLEWVSGISGNGVLIFYADSVKGRFTISRDNSKNTLYLQMNSLRAEDTAVYYCARWFDVWGQGTLVTVSS
VL: B4 VL
Regarding B5, the “ID50 in human protease assay (modified assay)” value (“ID50 in human protease assay” for short) with human TIMP-1 [7] is 0.0003 µM.

B6: MS-BW-44-2-4 (Fab, V domains shown)
VH: QVQLVESGGGLVQPGGSLRLSCAASGFTFSSYAMSWVRQAPGKGLEWVSGISGNGVLIFYADSVKGRFTISRDNSKNTLYLQMNSLRAEDTAVYYCARGLMDYWGQGTLVTVSS
VL: B4 VL
Regarding B6, in the experiment with human TIMP-1 [7], the “ID50 in human protease assay” value turned out to be 0.0002 µM.

B7: MS-BW-44-2-15 (Fab, V domains shown)
VH: B5 VH with V102H
VL: B4 VL
B7: the “ID50 in human protease assay” value in the experiment with human TIMP-1 [7] amounted to 0.0002 µM.

B8: MS-BW-44-6 (Fab, V domains shown)
VH: B5 VH with S30N, G50V, V56S, L57N, I58T, F59Y, W99F, F100L, V102I
VL: B4 VL
notes: Fab
With B8, the “ID50 in human protease assay” value with human TIMP-1 [7] stood at 0.0002 µM. Besides, the “affinity gain factor (Kd) over MS-BW-44” value with human TIMP-1 [8] turned out to be 5 fold. For the same molecule, in the experiment with human TIMP-1 [6], the “gain factor (IC50) over MS-BW-44” value turned out to be 10 fold.

B9: MS-BW-44-6-1 (Fab, V domains shown)
VH: B5 VH with S30N, G50V, V56S, L57N, I58T, F59Y, W99F, F100L, V102I
VL: B4 VL with V96I
For B9, the “ID50 in human protease assay” value in the experiment with human TIMP-1 [7] amounted to 0.0002 µM.

B10: MS-BW-44-2 (Fab, V domains shown)
VH: B5 VH with W99F, F100L, V102I
VL: B4 VL
notes: Fab
For the molecule B10, the “ID50 in human protease assay” value with human TIMP-1 [7] is 0.0004 µM. The “affinity gain factor (Kd) over MS-BW-44” value with human TIMP-1 [8] is 5 fold. For the same molecule, the “gain factor (IC50) over MS-BW-44” value with human TIMP-1 [6] amounted to 5 fold.

B11: MS-BW-63 (Fab, V domains shown)
VH: QVQLVQSGAEVKKPGESLKISCKGSGYSFTSYWIGWVRQMPGKGLEWMGIIYPGDSDTRYSPSFQGQVTISADKSISTAYLQWSSLKASDTAMYYCARILTGHVLLFDYWGQGTLVTVSS
VL: DIALTQPASVSGSPGQSITISCTGTSSDVGGYNYVSWYQQHPGKAPKLMIYDVSNRPSGVSNRFSGSKSGNTASLTISGLQAEDEADYYCQSDNPYLVFGGGTKLTVLG
B11: the “IC50 in rat protease assay” value with rat TIMP-1 [9] stood at 20000 µM.
